Measured values reported in the nanobody polyreactivity screen of Harvey et al. (2022).

Assay: yeast display, Sf9 membrane polyspecificity reagent, FACS + sequencing; frameworks hold sequencing errors
Summary of the method: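 Genes from sorted yeast were amplified by colony PCR, read by MiSeq 2 × 250 sequencing and filtered on CDR length. These cells carried a synthetic nanobody library in Saccharomyces cerevisiae BJ5465 and were sorted by FACS into low and high (top ~1%) gates on anti-HA and streptavidin fluorescence. Polyreactivity is labelled according to the gate of origin.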

Sequence	polyreactivity (PSR sort gate)
QVQLVESGGGLVQAGGSLRLSCAASGRTLGRYAMGWYRQAPGKERELVAAMNVGGGTTHYADSVKGRFTISRDNAKNTVYLQMNSLKPEDTAVYYCAAYRYTYGDRHAYDYWGQGTQVTVSS	low polyreactivity
QVQLVESGGGLVQAGGSLRLSCAASGRTFLLNAMGWYRQAPGKERELVAAITRSGVITYYADSVKGRFTISRDNAKNTVYLQMNSLKPEDTAVYYCAAQLRYSYLRPSYYYWGQGTQVTVSS	high polyreactivity
QVQLVESGGGLVQAGGSLRLSCAASGSIFDANAMGWYRQAPGKERELVATIRIGGSTNYADSVKGRFRISRDNAKNTVYLQMYSLKPEDTAGYYCAASRQFRSRRFYYWGQGTQVTVSS	high polyreactivity
QVQLVDSGGGLVQAGGSLRLSCAASGSIFLLYVMGWYRQAPGKERELVAAISSGGSTNYADSVKGRFTISRDNAKITVYLQMNSLKPEDTAVYYCNAVAGPQGVKLYDYWGQGTQVTVSS	low polyreactivity
QVQLVESGGGLVQAGGSLRLSCAASGSIFVYYAMGWYRQAPGKERELVAAINFRGGNTYYADSVKGRFTISRDNAKNTVYLQMNSLKPEDTAVYYCAADYRWKWIGGARYDYWGQGTQVTVSS	low polyreactivity
QVKLVESGGGLVQAGGRLRLTCAASGSTISGYAMGWYRQAPGKERQLVATITGGGRTYYADSVKGRFTISRDNAKNTVYLQMNSLKPEDSAVYYFAVRGYHQYKYGYWGQGTQVTVSS	high polyreactivity
QVQLVESGGGLVQAGGSLRLSCAASGRIFFRNAMGWYRQAPGKEREFVAAINWSGGSTYYADSVKGRFTISRDNAKNTVYLQMNSLKPEDTAVYYCAARGSRGGRRGATASMDYWGQGTQVTVSS	high polyreactivity
QVQLVESGGGKVQAGGSLRLSCAASGYTFKYYTMGWYRQAPGKERELLAAITRSGGSTYYADSVKGRFTISRDTAKNTVYLQMNSLKPEDTAFYYCAARASYKQPVSFDYWGQGTQVTVSS	high polyreactivity
QVQLVESGGGLVKAGGSLRLSCAASGITFLYYAMACYRQAPGKERELVAAISTSGGSTYYSDSVKGRFTISRDNAKNTVYLQMNSLKPEDTAVYYCAKSVGVGGEDRVGSWGQGTQVTVSS	low polyreactivity
QVKLVESGGRLVQAGGSLRLSCAASGFTNYAMGWNRQAPGKERELVAAITLSDASTYYADSVKGRFTISRDNAKNTVYLQMNSLKPEDTAVDYCAAKGGRSKSGARALGYWGQGTHVTVSS	low polyreactivity
QVQLVESGGGLVQAGGSLRLSCAASGSTSCSNAMGWSRQAPGKERELVAAITTGASTYYADSVKGRFTISRDNAKNTVYLQMNSLKPEDTAVYYCAADPWVLWSYYYWGQGTQVTVSS	low polyreactivity
QVQLVESGGGLVQAGGSLRLSCASSGSTFFTNVMVRYRQAPGKERELVAAIDQRDGRTYYADSVKGRFTISRDNAKNTVYLQMNSLKPEDTAVYYSNAGTDGYQFYFGFADYDYWGQGTQVTVSA	low polyreactivity
QVQLVQSGGGLVQAGGSLRLSCAASGRIFNYNAMGWYRQAPGKERELVAAINRSGVSTHYADSVKGRFTISRDNAKNTVYLQMNSLKPEDTAVYYCARTVYGARSYDYWGQGTQVTVSS	low polyreactivity
QVQLVESGGGLVQAGGSLRLSCAASGSIFGRNAMGWYRQAPGKERELVAVISKRSGNTYYADSVKGRFTISRDNAKNTVYLQLNSLKPEDTAVYYCNAVDQKLLRYDYWGQGTQVTVSS	high polyreactivity
QVQLVESGGGLVQAGGSLRLSCAASGIIFYDYAMGGYREAPGKERELVATITRGGGTKYADSVKGRFTISRDNAKNTVYLQMNSLKPEDTAVYYCAADSHGVYEGDYCGQGTQVTVSS	low polyreactivity
QVQLVESGGGLVQAGGSLRLSCSASGLTFKENAMGWYRQAPGTERELVAAISKGGGSTFYADSVKGRFTISRDNAKNTVYLQMNTLKPEDTAVYYCNADVGYRGGEEDYWGQGTQVTVSS	low polyreactivity
QVQLVESGGGLVQAGGSLRLSCAASGSTFQSYAMGWYRQAPGKERELVAGITSGDSTNYADSVKGRFTISRDNAKNTVYFQMISLKPEDTAVYYCNAVTQASYYYWGQGTQVTVSS	low polyreactivity
QEQLQESGGGLVHAGGSLRLSCAASGSISQAWYMGWYRQAPGKERELVAAINGGAITYYADSVKGRFSISRDNAKNTVYLPMNSLTPEDTAVYYCAVDQYSEAYYDYWGQGTQATVSS	high polyreactivity
QVQLVESCGVLVQAGGSLRLSCAASGFILYGNAMGWYRQAHGKERELVAAISRRGGSTYYADSVKGRFTISRDNAKNTVYLQMNSLKPEDTAVYYCAKDGPGGGTRIYDYWGLGTQVTVSS	high polyreactivity
QVQLVESGGGLVQAGGSLRLSCAASGIIFYRYAMGWYRQAPGKERELVAAITWRGGSTYYADSVKGRFTISRDNAMNTVYLQMNSLKPEDTAVYYCAARRRATYELDYWGQGTQVNVSS	high polyreactivity
QVQLVEAGGGLVQAGGSLRLSCAASGITFGDNAMGCYRQAPGKERELVAAITLSDVDTYADSVKGRFTISRDNAKNTVYLQMNSMKPEDTAVYYCAADYDFFSLYLYDYCGQGTQVTVSS	low polyreactivity
QVQLVESGGGLVQAGGSLRLSCAASGRTIWYYAMGWYRQAPGKERELVAAITNRGGSTSYADSVKVRFTISRDNVKNTVYLQMNSLKPEDTAVYYCAKENYYGGGFDYWGQGTQVTVSS	high polyreactivity

Sequence	polyreactivity (PSR sort gate)
QVQLVESGGGLVQAGGSLRLSCAASGFTFVYYVMGWYRQAPGKEREKVAAINAGGGSTYYADSVKGRFTISRDNAKNTVYLQMHSLKPEDSAVYYCATRPRYYYFRYDYWGQGTQVTVSS	high polyreactivity
QVQLVESGGGLVQAGGSLRLSCAASGRNIYSNAMGWYRQAPGKERELVAAIRWRDGATYYADSVKGRFTISRDNAKNTVYLQMNSLKPEDTAVYYCAAVYWGEEYEYWGQGTQVTVSS	low polyreactivity
QVQLVESGGGLVQAGGSLRLSCAASGIIFITYAMGWYRQAPGKERELVAAITNSGGGTYYADSVKGRFTISRDNAKNTVDLQMTSLKPEDTAVYYCAARKTAYGYRYDYWGQGTQVTVSS	high polyreactivity
QVQLVESGGGLVQAGGSLRLSCAASGRTFYRYAMGWYRQAPGKERELVAAITTGGGSTYYADSVKGRFTISRDNAKNTVYLQMNSLKPEETAVYYCNVYSSYTRRTLGDYWGQGTQVTVSS	high polyreactivity
QVQLVESGGGLVQAGGSLRLSCAASGRIVARYAMGWYRQAPGKERELVAAISPVGSTYYADSVKGRFTISRDNAKNTVYLQMTSLNPEDTGVYYCNAYNTRRSAPYVWRTYDYWGQGTQVTVSS	high polyreactivity
QVQLVESGGVLVQAGGSLRLSCAASGSIFCVNAMGWSRQAPGKERELVAAISWRGASTYYADSVKGRFTISRDNAMNTVYLQMNSLKPEDTAVYYCAAKCTGGDPYYAFDYWGQGTHVTVSS	low polyreactivity
QVQLVESGGGLVQAGGSLRLSCAASGRTFHYYVMGWYRQAAGKERELVAAISRSGGNTYYADSVKGRFTISRDNAKNTVYLQMNSLKPEDTAVYYCAAALSAYVKWDYYYWGQGTQVTVSS	low polyreactivity
QVQLVESGGGLVQAGGSLRLSCAASGSTFNDYVMGWYRQAPGKERELVAAISRSGGSTYYADSVKGRFTISRDNAKNTVYLQMNSLKPEDTAVYYCAAASPGPWRYDYWGQGTQVTVSS	high polyreactivity
QVQLLESGGGLVQAGGSLRISCASSGRTFSSNTMGRYRQAPGKERELVAAISSTDSTYYADSVKGRYTISRDNAKNTVYLQMNSLKPEDTAVYYCAKRPTRRYGYWGQGTQVTVSS	high polyreactivity
QVQLVESGGGLVQAGGSLRLSCAASGSTFAANAMGWYRQAPGKERELVAAITSSGGSTYYADSVKGRFTISLDNEKNTVYLQMNSLKPEDTAVYYCNKDIERYVRIYDSWGQGTQVTVSS	low polyreactivity
QVKLVESGGGLVQAGGSLRLSCAASGRILGYYAMGWYRPAPGKERELVAAINRGGRTYYADSVKGRFTISRDNAKNTVYLEMYSLKPEDTAVYYCAAVLYNQWALVYWFGYNYWGQGTQVSVSS	high polyreactivity
QGQLVESGGGLVQAGGSLRLSCAASGRTFTYYVMGWSRQAPGKERELVAAISWTGGSTNYADSVMGRFTISRDNAKNTVYLQMNSRKPEDTAVYYCNAGGFFGYGRPGYYWGQGTQVTVSS	low polyreactivity
QVQLVESGGGLVQAGGSLRLSCAASGRTFLYYAMGWYRQAPGKERELVAAITWSGGSTYYADSVKGRFTISRDNAKNTVYLQMNSLKPEDTAVYYCAALGWIDWYWQPGMDYWGQGTQVTVSS	high polyreactivity
QVQLVESGVGLVQAGGSLRLSSAASGSIFLSYDMGWYRQAPGKERELVAAITQSGGSTYYADSVKGRFTISRDNAKNTVYLQMNSLKPEDTAVYYCAADYGYFPQETYPTYGYYYWGQGTQVTVSS	low polyreactivity
QDQLVESGGGLVQAGGSLRLSCAASGSTFHPYAMGWYRQAPGKERELVAAITFSGGSTYADSVKGRFTISRDNAKNTVYLQMNSLKPEDNAVYYCAAEWWYWRGWRDYWGQGTQVTVSS	low polyreactivity
QVQLVESGGGLVQAGGSLRLSCAASGSTFVWYAMGWYRQAPGKERELVAVIDWSGGSTSYADSVKGRFTISRDNAKNTVYLQMNSLKPEDTAVYYCAADSGHYYGLYYWGQGTQVTVSS	low polyreactivity
QVQLVESGGGLVQAGGSLRLSCAASGSIFVRNGMGWYRQAPGKDRELVASITSGTITYYADSVKGRFTISRDNAKNTVYLQMNSLKPEDTAVYDCNAGWRSSRFKRPYFRERNYWGQGTQLTVSS	high polyreactivity
QVQLVESGGGLVQAGGSLRLSCAASGSTFVDYAMGWYRQAPGKERELVAAINRSGGRTYYADSVKGRFTISRDNAKNTVYLQMNSLKPEDTAVYYCAAKNPQPDEHGYWGQGTQVTVSS	high polyreactivity
QVQLVESGGGIVQAGGSLRLRCAASGSIFVPYAMGWYRQAPGKERELVAAISSRGGRTYYADSVKGRFTISRDNAKNTVYLQMNSLKPEDTAVYYCNKTAGSHIPRLEYWGQGTQVTVSS	low polyreactivity
QVQLVESGGGLVQAGGSLRLSCAASGRTFMRNAMGLYRQAPGKERELVAAISRSGGSTYYADSVKGRFTISRDNAKNTVYLQMNSLKPEDTAVYYCAADDYGGYYYWGQGTQVTVSS	high polyreactivity
QVQLVESGGGLVQAGGSLRLSCAASGYTFTIYAMGWYRQAPGKERELVAAITGGGGRTYYADSVKGRFTISRDNAKNTVYLQMNSLKPEDTAVYYCAASGPIVGMNYWGQGTQVTVSS	high polyreactivity
